These results are taken from patent publication US20240317871A1 (IMMUNOMIC THERAPEUTICS, published 2024).

Numbering of substitutions follows the chain as printed.

As usually defined, the kon is the second-order rate constant of association. The term Kd denotes the constant that tells how readily two partners part at equilibrium. Broadly, the koff is a measure of how fast the partners let go of each other.

B1: Ab_040 (H5S15-23A21A) (antibody, V domains shown)
VH: EVQLQQSGTVLARPGASVKMSCKASGYTFTSFWMHWVKQRPGQGLEWIGAISPGNSETTYNQKFTGKAKLTAVTSTSTAYMELSSLTNEDSAVYYCTKIYYDYDDGYWGQGTTLTVSS
VL: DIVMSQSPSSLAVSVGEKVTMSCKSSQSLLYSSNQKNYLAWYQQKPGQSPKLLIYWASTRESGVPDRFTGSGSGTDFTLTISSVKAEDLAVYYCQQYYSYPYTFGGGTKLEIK
notes: also called Ab_40
B2: Ab_047 (H5S15-36A32A) (antibody, V domains shown)
VH: EVQLQQSGAELVKPGASVKLSCTASGFNIKDTYMHWVKQRPEQGLEWIGRIDPANGNTKYDPKFQGKATITADTSSNTAYLQLSSLTSEDTAVYYCARPYGNYGFAYWGQGTLVTVSA
VL: DIQMTQSPASLSASVGETVTITCRASGNIHNYLAWYQQKQGKSPQLLVYNAKTLADGVPSRFSGSGSGTQYSLKINSLQPEDFGSYYCQHFWSTFTFGSGTKLEIK
notes: also called Ab_47
B3: Ab_061 (H5S19-13A16B) (antibody, V domains shown)
VH: QIQLVQSGPELKKPGETVKISCKASGYTFTNFGVNWVKQAPGKGLKWMGWINTYTGEPTYADDFKGRFAFSLETSASTAYLRINNLKNEDTATYFCARSYYANYAYWGQGTTLTVSS
VL: QIVLTQSPAIMSASPGEKVTLTCSASSSVDSSYLYWYQQKPGSSPKLWIYGTSNLASGVPARFSGSGSGTSYSLTISSMEAEDAASYFCHQWNSYPWTFGGGTKLEIK
notes: also called Ab_61
B4: Ab_075 (H5S20-12A10A) (antibody, V domains shown)
VH: B3 VH with V34M, K38R, R82Q, E89D, T91M, Y100L, A102G, Y104R, A105D
VL: QIVLTQSPAIMSASLGEEITLTCSASSSVSYMHWYQQRSGTSPKLLIYSTSNLASGVPSRFSGSGSGTFYSLTISSVEAEDAADYYCHQWSSYRTFGGGTKLEIK
notes: also called Ab_75
B5: Ab_062 (H5S19-16A18A) (antibody, V domains shown)
VH: B3 VH with R82Q, A97V, A102G, Y104S, A105G
VL: B3 VL with A13T, D30S, G51S, N93S, S94T
notes: also called Ab_62
B6: Ab_060 (H5S19-8A16A) (antibody, V domains shown)
VH: B3 VH with T93S, Y104N
VL: B3 VL with Y37F
notes: also called Ab_60
B7: Ab_039 (H5S15-21A19A) (antibody, V domains shown)
VH: QIQLVQSGPDLKKPGETVKISCKASGYTFTNYGMNWVKQAPGKDLKWMGWINTYTGEPTYADDFKGRFAFSLETSASTAYLQINNLKNDDTATYFCARSINYDSDEKWGQGTSVTVSS
VL: QIVLTQSPAIMSASLGERVTLTCTASSSVSSSYLHWYQQKPGSSPKLWIYDTSNLASGVPARFSGSGSGTSYSLTISSMEAEDAATYYCHQYHRSQWTFGGGTKLEIK
notes: also called Ab_39
B8: Ab_004 (H5S14-24A4A) (antibody, V domains shown)
VH: EVQLQQSGPELVKPGTSVKISCKTSGYTITEYTMHWVKQSHGKSLEWIGGINPNNGGTINNQKFKDKATLTVDMSSSTAYMELRSLTSEDSAVYYCAGSVVDRYWYFDVWGAGTTVTVSS
VL: QIVLTQSPAIMSASPGEKVTISCSASSSVSYMYWYQQKPGSSPKPWIYRTSNLASGVPARFSGSGSGTSYSLTISSMEAEDAATYYCQQYHSYPLTFGAGTKLELK
notes: also called Ab_4
B9: Ab_005 (H5S14-4A4A) (antibody, V domains shown)
VH: B8 VH with T16A, I29F, N54Y, D66G
VL: B8 VL
notes: also called Ab_5
B10: Ab_053 (H5S19-20A20A) (antibody, V domains shown)
VH: QVQLKESGPGLVAPSQSLSITCTVSGFSLTSYGVHWVRQPPGKGLEWLGVIWAGGITNYNSALMSRLSISKDNSKSQVFLKMNSLQTDDTAMYYCARDWERDSSGPFVYWGQGTLVTVSA
VL: DIQMTQTTSSLSASLGDRVTISCTASQGISNYLNWYQQKPDGTVKLLIYYTSTLHSGVPSRFSGSGSGTDYSLTISNLEPEDIATYYCQQYFKLPWTFGGGTKLEIK
notes: also called Ab_53
B11: Ab_081 (H5S20-44A32A) (antibody, V domains shown)
VH: EVKLVESGGGLVQPGGSLKLSCAASGFTFSSYTMSWVRQTPEKRLEWVAYISNGGGSTYYPDTVKGRFTISRDNAKNTLYLQMSSLKSEDTAMYYCARHRGYGSSYNYAMDYWGQGTSVTVSS
VL: DIVMTQSQKFMSTSVGDRVSVTCKASQNVGTNVAWYQQKPGQSPKALIYSASYRYSGVPDRFTGSGSGTDFTLTISNVQSEDLAEYFCQQYNSYPFTFGSGTKLEIK
notes: also called Ab_81
B12: Ab_082 (H5S20-55A36A) (antibody, V domains shown)
VH: EVKLVESGGGLVQPGGSLKLSCAASGFTFSSYTMSWVRQTPEKRLEWVADISNGGGSTYYPDTVKGRFTISRDNAKNTLYLQMSSLKSEDTAMYYCARHRGYGNYVYAMDYWGQGTSVTVSS
VL: B11 VL with F96L, S100G
notes: also called Ab_82
B13: Ab_042 (H5S15-28A23A) (antibody, V domains shown)
VH: QVQLQQSGAELVKPGASVKMSCKAFGYTFTTYPIEWMKQNHGKSLEWIGNFHPYNDDTKYNEKFKGKAKLTVEKSSSTVYLELSRLTSDDSAVYYCARGGFAYWGQGTLVTVSA
VL: DVVMTQTPLSLPVSLGDQASISCRSSQSLVHSNGNTYLHWYLQKPGQSPKLLIYKVSNRFSGVPDRFSGSGSGTDFTLKISRVEAEDLGVYFCSQSTHVPFTFGSGTKLEIK
notes: also called Ab_42
B14: Ab_038 (H5S15-19A18A) (antibody, V domains shown)
VH: QVQLKESGPGLVAPSQSLSITCTVSGFSLTGYGVNWVRQPPGKGLEWLGMIWGDGGTDYNSALKSRLSISKDNSKSQVFLKMNSLQTDDTARYYCARDNYHTVVNGDYWGQGTSVTVSS
VL: ENVLTQSPAIMSASPGEKVTMTCRASSSVSSSYLHWYQQKSGASPKLWIYSTSNLASGVPARFSGSGSGTSYSLTISSVEAEDAATYYCQQYSGYPLTFGGGTKLEIK
notes: also called Ab_38
B15: Ab_085 (H5S20-53A41A) (antibody, V domains shown)
VH: EVQLVESGGGLVKPGGSLKLSCAASGFTFSSYAMSWVRQSPEKRLEWVAEISSGGSYTYYPDTVTGRFTISRDNAKNTLYLEMSSLRSEDTAMYYCAREGLRRDYYALDYWGQGTSVTVSS
VL: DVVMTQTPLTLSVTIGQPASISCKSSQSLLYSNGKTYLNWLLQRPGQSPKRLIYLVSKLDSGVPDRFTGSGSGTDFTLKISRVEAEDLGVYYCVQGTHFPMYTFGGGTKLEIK
notes: also called Ab_85
B16: Ab_041 (H5S15-27A22A) (antibody, V domains shown)
VH: EVQLQQSGAELVKPGASVKLSCTASGFNIKDTYMHWVKQRPEQGLEWIGRIDPANGNTKYDPKFQGKATITADTSSNTAYLQLSSLTSEDTAVYYCARSRRYFDVWGAGTTVTVSS
VL: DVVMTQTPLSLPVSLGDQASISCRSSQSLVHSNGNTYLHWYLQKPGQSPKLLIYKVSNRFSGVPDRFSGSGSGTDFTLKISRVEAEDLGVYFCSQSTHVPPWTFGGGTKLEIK
notes: also called Ab_41
B17: Ab_076 (H5S20-26A22A) (antibody, V domains shown)
VH: QIQLVQSGPELKKPGETVKISCRASGYTFTNYGMNWVKQAPGKGLKWMGWINTYTGEPTYADDFKGRFAFSLETSASSAYLQINNLKNEDMATYFCARSLYYGDNYEAYWGQGTLVTVSA
VL: QIVLTQSPAIMSASLGEEITLTCSASSSVSYMHWYQQKSGSSPKLLIYTTSNLASGVPSRFSGSGSGTFYSLTISSVEAEDAADYYCHQWSSYTWTFGGGTKLEIK
notes: also called Ab_76
B18: Ab_048 (H5S19-24A22A) (antibody, V domains shown)
VH: QVQLQQSGGELLRPGTSVKVSCKASGYAFTNYLIEWVKQRPGQGLEWIGVINPGSGGIYYKEKFKDKAILTADKSSSTAYMQLSSLTSDDSAVYFCARGDAMDFWGQGTSVTVSS
VL: DAVMTQTPLSLTVSLGDQASISCRSSQTLENTNGNTYLNWYLQKPGQSPQLLIYRVSNRFSGVLDRFSGSGSGTDFTLKISRVEAEDLGVYFCLQVTHVPYTFGGGTKLEIK
notes: also called Ab_48

In one test the target is T1, murine HVEM (murine, UniProt Q80WM9 39-206, limits assumed).
T1 construct: also called Mouse
T1 sequence (looked up): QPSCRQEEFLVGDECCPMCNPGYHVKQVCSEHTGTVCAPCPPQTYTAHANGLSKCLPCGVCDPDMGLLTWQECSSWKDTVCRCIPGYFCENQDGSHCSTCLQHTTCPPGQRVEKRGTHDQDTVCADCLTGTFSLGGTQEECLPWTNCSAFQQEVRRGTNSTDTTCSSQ
Description: ELISA. For orientation: ELISA stands for enzyme-linked immunosorbent assay.
Molecule B1 registered an ELISA signal of 0.05.

Take B2: the ELISA signal was 0.051.

The molecule B3 came in with an ELISA signal of 0.043.

For the molecule B4, the ELISA signal worked out at 0.048.

B5 gave an ELISA signal of 0.045.

In the case of B6, the ELISA signal was found to be 0.044.

B7 displayed an ELISA signal of 0.042.

As to B8, the ELISA signal was found to be 0.044.

In turn, B9 had an ELISA signal of 0.048.

In the case of B10, the ELISA signal came out at 0.042.

The molecule B11 had an ELISA signal of 0.048.

In the case of B12, the ELISA signal came to 0.044.

Take B13: the ELISA signal came out at 0.046.

With B14, the ELISA signal amounted to 0.043.

The molecule B15 gave an ELISA signal of 0.046.

On to B16, for which the ELISA signal was found to be 0.045.

Consider B17, for which the ELISA signal worked out at 0.044.

The molecule B18 yielded an ELISA signal of 0.044.

The target of another test is T2, human HVEM (human, UniProt Q92956 39-202, limits assumed).
T2 sequence (looked up): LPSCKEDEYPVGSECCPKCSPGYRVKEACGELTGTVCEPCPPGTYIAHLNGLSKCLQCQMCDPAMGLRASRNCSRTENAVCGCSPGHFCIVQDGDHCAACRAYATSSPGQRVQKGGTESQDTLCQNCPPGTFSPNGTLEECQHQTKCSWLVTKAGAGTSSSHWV
The test can be described thus: ELISA.
Molecule B1 returned an ELISA signal of 0.069.

The molecule B2 registered an ELISA signal of 1.19.

B3 came in with an ELISA signal of 2.98.

In turn, B4 had an ELISA signal of 3.04.

Turning to B5, the ELISA signal stood at 2.95.

B6 showed an ELISA signal of 3.09.

B7 showed an ELISA signal of 2.87.

Turning to B8, the ELISA signal came to 2.42.

B9: the ELISA signal was 2.44.

In turn, B10 returned an ELISA signal of 2.89.

B11: the ELISA signal amounted to 1.59.

In turn, B12 yielded an ELISA signal of 0.844.

The molecule B13 registered an ELISA signal of 0.049.

Take B14: the ELISA signal worked out at 0.049.

Molecule B15 came in with an ELISA signal of 0.049.

Regarding B16, the ELISA signal amounted to 0.059.

Regarding B17, the ELISA signal came to 2.89.

The molecule B18 returned an ELISA signal of 2.5.

A further test has as its target T3, cynomolgus monkey HVEM (cynomolgus monkey, UniProt A0A2K5W0R1 39-203).
T3 sequence: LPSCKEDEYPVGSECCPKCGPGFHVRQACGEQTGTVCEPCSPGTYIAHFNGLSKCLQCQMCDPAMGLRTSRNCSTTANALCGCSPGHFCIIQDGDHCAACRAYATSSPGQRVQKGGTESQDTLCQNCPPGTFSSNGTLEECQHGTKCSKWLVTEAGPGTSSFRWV
Description: ELISA.
B1 showed an ELISA signal of 0.098.

Consider B2, for which the ELISA signal is 0.743.

B3: the ELISA signal amounted to 3.03.

Take B4: the ELISA signal is 3.04.

With B5, the ELISA signal stood at 2.98.

As for B6, the ELISA signal came to 3.03.

The molecule B7 had an ELISA signal of 3.03.

In turn, B8 yielded an ELISA signal of 0.062.

For B9, the ELISA signal worked out at 0.063.

B10 had an ELISA signal of 2.1.

For B11, the ELISA signal was found to be 0.076.

The molecule B12 gave an ELISA signal of 0.06.

The molecule B13 registered an ELISA signal of 0.062.

In the case of B14, the ELISA signal came to 0.06.

B15 yielded an ELISA signal of 0.061.

B16 returned an ELISA signal of 0.076.

Regarding B17, the ELISA signal is 2.96.

Take B18: the ELISA signal is 0.826.

A further test has as its target T4, His-tagged human HVEM (human, UniProt Q92956 39-202, limits assumed).
T4 construct: Analyte of the BLI assay, 200 nM in PBS; not shown: His tag
T4 sequence (looked up): T2 sequence (looked up)
The test can be described thus: BLI OctetRed96, mAb captured, 200 nM His-HVEM. As to the method:
Binding of antibodies to HVEM may also be determined by bio-layer interferometry (BLI) on an OctetRed96@ system (Sartorius). (See http://www.fortebio.com/bli_technology.html for general description of a BLI assay.) For this experiment, murine anti-human HVEM antibodies were captured from culture supernatant using anti-mouse IgG Fc capture and immobilized to dip and read biosensors. Sensors were then dipped into a solution of 200 nM His-tagged human HVEM in phosphate-buffered saline (PBS). Probes were dipped into PBS assay buffer and the dissociation rate (koff) was measured. The association rate (kₒₙ) and affinity (KD) were determined by curve fitting analysis.
B8 registered a kon of 769 M⁻¹ s⁻¹.

Molecule B9 showed a kon of 2240 M⁻¹ s⁻¹.

B10 came in with a Kd of 103 nM, a koff of 0.00439 s⁻¹ and a kon of 42700 M⁻¹ s⁻¹.
